Experiments:
[1] = molecular target: PARP1 (high specific activity) (human, UniProt P09874 1-1014); test: EMSA; PARP1 alone, control from PARylation reaction; did not affect DNA migration; 20 mM Hepes pH 7.9, 100 mM NaCl, 50 mM KCl, 1 mM MgCl2, 0.1 mM EDTA, 1 mM DTT, 5% glycerol, 0.5 mg/ml BSA, 0.1% NP-40; 4 °C, 90 min; native 4.5% PAGE; conditions: protein: commercial; label: 32P 5' end label (T4 PNK); blunt
[2] = molecular target: TRF1 (unmodified, His-tagged full length) (human, UniProt P54274 1-439); test: EMSA; unmodified TRF1, 1 ug protein, 0.5 ng DNA; 20 mM Hepes pH 7.9, 100 mM NaCl, 50 mM KCl, 1 mM MgCl2, 0.1 mM EDTA, 1 mM DTT, 5% glycerol, 0.5 mg/ml BSA, 0.1% NP-40; 4 °C, 90 min; native 4.5% PAGE; conditions: protein: recombinant; tags: His (pTrc-HisB); chain copies: 2; label: 32P 5' end label (T4 PNK); blunt
TRF1 (unmodified, His-tagged full length), sequence (P54274 whole entry): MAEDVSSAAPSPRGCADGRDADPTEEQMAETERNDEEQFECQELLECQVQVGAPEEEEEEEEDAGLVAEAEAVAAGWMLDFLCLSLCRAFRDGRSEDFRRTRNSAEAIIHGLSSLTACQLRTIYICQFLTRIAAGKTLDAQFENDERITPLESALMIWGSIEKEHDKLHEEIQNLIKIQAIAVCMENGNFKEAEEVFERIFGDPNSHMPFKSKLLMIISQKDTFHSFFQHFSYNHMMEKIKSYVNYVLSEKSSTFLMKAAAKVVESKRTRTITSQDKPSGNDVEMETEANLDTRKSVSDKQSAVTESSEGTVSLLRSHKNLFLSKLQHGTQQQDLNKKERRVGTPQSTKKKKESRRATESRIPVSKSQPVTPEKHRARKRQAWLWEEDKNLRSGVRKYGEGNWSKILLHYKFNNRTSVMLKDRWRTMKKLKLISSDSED

PARP1 (high specific activity), sequence (P09874 whole entry): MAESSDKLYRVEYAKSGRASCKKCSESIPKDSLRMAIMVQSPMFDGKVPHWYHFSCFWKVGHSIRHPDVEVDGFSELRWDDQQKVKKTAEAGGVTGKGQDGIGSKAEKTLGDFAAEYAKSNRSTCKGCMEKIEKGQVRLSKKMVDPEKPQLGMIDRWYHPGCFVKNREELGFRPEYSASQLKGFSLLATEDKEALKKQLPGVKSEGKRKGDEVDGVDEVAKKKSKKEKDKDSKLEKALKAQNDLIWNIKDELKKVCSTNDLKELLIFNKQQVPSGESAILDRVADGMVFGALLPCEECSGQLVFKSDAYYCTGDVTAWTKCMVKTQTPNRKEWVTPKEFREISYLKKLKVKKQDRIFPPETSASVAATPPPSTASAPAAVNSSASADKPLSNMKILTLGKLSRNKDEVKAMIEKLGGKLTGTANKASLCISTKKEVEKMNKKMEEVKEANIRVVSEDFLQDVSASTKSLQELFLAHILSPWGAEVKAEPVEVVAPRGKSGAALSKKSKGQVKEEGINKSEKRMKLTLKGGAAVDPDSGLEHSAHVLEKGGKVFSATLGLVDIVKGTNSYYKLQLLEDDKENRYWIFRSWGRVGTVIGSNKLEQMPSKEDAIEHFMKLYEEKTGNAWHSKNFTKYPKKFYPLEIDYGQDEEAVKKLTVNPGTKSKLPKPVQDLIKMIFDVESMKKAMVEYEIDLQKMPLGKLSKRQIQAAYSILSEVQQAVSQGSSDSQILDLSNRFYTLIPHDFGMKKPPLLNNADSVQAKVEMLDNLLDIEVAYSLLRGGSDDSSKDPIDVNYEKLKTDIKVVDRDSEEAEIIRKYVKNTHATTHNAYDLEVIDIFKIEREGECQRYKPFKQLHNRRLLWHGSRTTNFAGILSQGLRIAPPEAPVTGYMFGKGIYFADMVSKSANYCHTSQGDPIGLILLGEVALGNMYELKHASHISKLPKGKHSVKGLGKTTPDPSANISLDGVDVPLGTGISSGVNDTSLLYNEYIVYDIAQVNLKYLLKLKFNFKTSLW

B1: telomeric duplex DNA (dsDNA)
DNA 1: GGGTTAGGGTTAGGGTTAGGGTTAGGGTTAGGGTTAGGGTTAGGGCCCCTC
DNA 2: GAGGGGCCCTAACCCTAACCCTAACCCTAACCCTAACCCTAACCCTAACCC
binding result [1]: no binding | binding result [2]: binds
